Laboratory results taken from patent US7893216B2 (The Institute of Basic Medical Sciences of Chinese Academy …, priority 2004, dated 2011).

Tests used:
[1] = Toxicity study in mice
[2] = test system: human primary normal lymphocytes; experiment: Effect on normal human primary lymphocytes in vitro (MTS); format: cell-based
Experimental: (§1) After treatment, MTS reagent (Promega, USA) was then added and reacted for 2-4 hours and the absorbance values (OD value) of each well were read by using an automatic multi-well spectrophotometer, Wellscan MK3 (Thermo Labsystems, Finland) at the wavelength of 492 nm. OD value of no cell wells is considered as “0,” and the survival rate of the cells is equal to ratio of OD value of treated wells to OD value of control wells.

[3] = test system: leukemia, liver and lung cancer cells; experiment: Tumoricidal activity in vitro (MTS cell viability); format: cell-based, human
Experimental: as §1

[4] = test system: liver cancer cells SMMC-7721; experiment: Tumoricidal activity in vivo, SMMC-7721 cells in nude mice; design: species or system nude mice BALB/c; details: SMMC-7721 in nude mice
Experimental: (§2) The dose was 15 mg/kg, three times administration in total. The mice of negative control group (n=8) were administrated with physical saline. The mice of positive control group (n=5) were administrated with cyclophosphamide (CTX, 60 mg/kg). […] Three weeks later, the mice were sacrificed and the growth of tumor was determined by the weight of the tumor mass.

[5] = test system: human leukemia, liver and lung cancer cells; experiment: Suppression of tumor formation and growth of human tumor cells in nude mice; format: in vivo; details: compared to the control group
Experimental: as §2

[6] = biological target: T1, recombinant human DR4 extracellular domain protein (Homo sapiens, UniProt O00220); experiment: ELISA cross-reactivity of AD5-10 with DR4; format: binding
T1 construct: recombinant human DR4 or DR5 extracellular domain protein expressed in E. coli; made in house; host or cells: E. coli
Experimental: ELISA was used for testing the specific combination of AD5-10 with its anitgen. ELISA plates (Costar, USA) were coated with recombinant human DR4 or DR5 extracellular domain protein expressed in E. coli over night, blocked with 5% nonfat milk at room temperature for two hours. […] The absorbency at 492 nm was measured on a microtiter reader of enzyme-labelled machine, Wellscan MK3 (Thermo Labsystems, Finland).

[7] = test system: Jurkat cells; experiment: Western blot of caspase activation and PARP cleavage; format: cell-based, human
Experimental: After the collected cells were lysed in cell cleavage solution, SDS-PAGE was used, the proteins separated in the gel were subsequently electrotransferred onto a polyvinylidene difluoride (PVDF) membrane. The membrane was then incubated with the indicated primary antibodies (Santa Cruz, USA) and probed with HRP-conjugated secondary antibodies (Beijing Zhongshan Co.). The proteins were visualized by ECL Plus Western Blotting Detection System (Amersham Biosciences, USA).

[8] = test system: tumor cells such as liver and lung cancer; experiment: Synergy of tumoricidal activity with TRAIL; format: cell-based; details: combined with TRAIL

T1 sequence (O00220 24-239 limits assumed): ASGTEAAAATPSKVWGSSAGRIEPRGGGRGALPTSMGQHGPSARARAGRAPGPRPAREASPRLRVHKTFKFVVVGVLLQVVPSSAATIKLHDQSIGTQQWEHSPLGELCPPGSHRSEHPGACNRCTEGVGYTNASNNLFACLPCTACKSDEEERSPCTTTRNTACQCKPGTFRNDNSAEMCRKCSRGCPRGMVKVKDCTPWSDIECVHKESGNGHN

B1: AD5-10: murine monoclonal antibody against human TRAIL receptor DR5, subtype IgG3κ, VL SEQ ID No. 1, VH SEQ ID No. 2, hybridoma CGMCC 1192 (antibody, V domains shown)
VH: QIQLVQSGPELKKPGETVKISCKASGYTFTDFSMNWVKQAPGKGLKWMGWINTETGEPTYADDFKGRFALSMETSASTAYLQINNLKNEDTATYFCVRIDYWGQGTTLTVSS
VL: DVVMTQTPLSLPVSLGDQASISCRSSQSLVHSNGNTYLHWYLQKPGQSPKLLIYKVSNRFSGVPDRFSGSGSGTDFTLKISRVEAEDLGVYFCFQSTHVPHTFGGGTKLEIKR
modifications: mus musculus
death and abnormalism in appetite, function, skin and hair ([1]; 150 mg/kg, 1 and 2 month's observation): does not cause observably death
histological analysis of organs ([1]; mice, organs such as liver): no pathological changes
toxicity to normal lymphocytes [2]: without toxicity to human primary normal lymphocytes in vitro
killing of tumor cells [3]: kills leukemia, liver and lung cancer cells with dose-dependent manner
tumor formation ([4]; early treatment): inhibits the tumor formation
tumor growth ([4]; late treatment): inhibites the tumor growth
inhibition rate [5]: about 80%
cross-reaction with death receptor DR4 [6]: does not cross-react
caspase cascade activation and PARP cleavage [7]: activates caspase cascade and PARP (poly ADP-ribose polymerase) cleavage
synergy with TRAIL [8]: can synergize the tumoricidal activity with TRAIL
